Data: paper PMC2894445

Experiments:
[1] = molecular target: Nup188 (Xenopus laevis (endogenous in Xenopus egg cytosol)); experiment: co-IP
[2] = molecular target: Nup205 (Xenopus laevis (endogenous in Xenopus egg cytosol)); experiment: co-IP

B1: Nup93 (natural protein)
chain: MDGEGFGELLQQAEQLAAETEGVTELPHVERNLQEIQQAGERLRSKTMTRTSQESANVKASVLLGSRGLDISHISQRLESLSAATTFEPLEPVKDTDIQGFLKNEKDNALLSAIEESRKRTFVMAEEYHRESMLVEWEQVKQRVLHTLLASGEDALDFTQESETSYISESGAPGRSSLDNVEMAYARQMYMYNEKVVSGHLQPSLVDLCTEAAERLDDKNVSDLWVMVKQMTDVPLIPASDTLKSRCSGQMQMAFVRQALNYLEQSYKNYTLISVFANLQQAQLGGVPGTYNLVRSFLNIRLPTPIPGLQDGEIEGYPVWALIYYCMRCGDLMAAQQVVNRAQHQLGDFKNCFQEYIHNKDRRLSPTTENKLRLHYRRAVRASTDPYKRAVYCIIGRCDVSDNHSEVADKTEDYLWLKLSQVCFEDEANSSPQDRLTLPQFQKQLFEDYGESHFAVNQQPYLYFQVLFLTAQFEAAIAFLFRLERTRCHAVHVALALFELKLLLKSTGQSAQLLSQEPGEPQGVRRLNFIRLLMLYTRKFEPTDPREALQYFYFLRNEKDNQGESMFLRCVSELVIESREFDMLLGKLEKDGSRKPGAIDKFTRDTKTIINKVASVAENKGLFEEAAKLYDLAKNPDKVLELTNKLLSPVVSQISAPQSNRERLKNMALAIAERYKSQGVSAEKSINSTFYLLLDLITFFDEYHAGHIDLSFDVIERLKLVPLSQDSVEERVAAFRNFSDEIRHNLSEILLATMNILFTQYKRLKGSGPTTLGRPQRVQEDKDSVLRSQARALITFAGMIPYRMSGDTNARLVQMEVLMN
percent of Nup93 co-immunoprecipitated [1]: 45%
percent of Nup93 co-immunoprecipitated [2]: 45%
